Measured values taken from PMC314469, “Protein Interaction Networks by Proteome Peptide Scanning” (PLoS Biology, 2004).

T1: amphyphisin SH3 (AMPH_HUMAN), P49418
T1 chain: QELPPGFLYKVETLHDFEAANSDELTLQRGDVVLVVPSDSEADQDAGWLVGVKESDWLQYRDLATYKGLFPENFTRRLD


Tests used:
[1] = target: T1, amphyphisin SH3 (AMPH_HUMAN), P49418; test: SPOT array
[2] = target: endophilin SH3 (SH3G2_HUMAN), Q99962; test: SPOT array

normalised SPOT signal, Boehringer light units (BLU); mean over the file's lines of this peptide [1]	normalised SPOT signal, Boehringer light units (BLU); mean over the file's lines of this peptide [2]	Binder
3830	211	PRSVFLRPQRNLES [Q9Y2L9 614-627]
47.9	75.8	PSGHIKRPMNAFMV [Q06945 55-68]
11900	11400	PSRPPSRPSRPPSH [Q99700 584-597]
101	265	PRPSPARPKKSEES [O94836 564-577]
43.4	43.3	ASPTPKRPSENMLI [O75592 2352-2365]
32.5	96	PRRRPGRPRKLPRL [Q9H4Z2 347-360]
3350	2740	PSGPPARPSRSMWD [Q9NXK1 363-376]
110	35	ASPRLRRPKSPKLP [Q96DR7 104-117]
1100	7980	PRRGPPRPPGLPYP [AAH31882 46-60]
68.9	1790	PSQPPPRPPPDYLR [Q9H013 786-800]
43.1	1670	PSQVPRRPHHTPFQ [Q9HBS1 152-165]
77.6	460	PSMDFNRPGKRAPW [Q9UFP0 807-820]
6780	8300	PRQPPSRPPRRPPW [Q99785 93-107]
34.1	48.3	PSIIFRRPEEAALS [Q9BZD6 162-175]
2340	12300	PSQVPPRPPPPRLP [Q9UDM5 470-484]
35.4	47.5	PSNPIRRPISADSA [Q00610 58-71]
16.4	258	PSDLPKKPPKPEFG [Q96QH2 28-42]
18.2	61.1	PSFHIKRPAPRPLA [O60890 702-715]
10100	12300	PSRPPRRPPWGRGS [Q99785 97-111]
264	405	PSESLPRPRRPLPT [Q9P0U4 228-241]
27600	32000	PRRPPPRPPSRLSM [Q9BVH8 778-792]
